Test results published in publication PMC6146289, “Combinatorial use of disulfide bridges and native sulfur-SAD phasing for rapid structure determination of coiled-coils” (Bioscience Reports, 2018).

Biological target: the molecule itself
Experiment: SEC-MALS; oxidizing conditions: 20 mM Tris-HCl, pH 7.5, 150 mM NaCl, without DTT; S-200 10/30 column; 100 μl at 4 mg/ml injected; 10°C

B1: HsCEP135 82–144 (amino acids 82–144 of human CEP135, centrosomal protein of 135 kDa) (domain or fragment, UniProt Q66GS9 82-144, looked up)
chain: NNELYLELMKLREHSDQHVKELKTSLKKCARETADLKFLNNQYAHKLKLLEKESKAKNERIQQ
notes: coiled-coil fragment with one cysteine (Cys110) and one methionine per monomer; Under oxidizing conditions Cys110 forms a homotypic disulfide bridge between the two chains of the parallel coiled-coil dimer; Calculated molecular weight 7.71 kDa
  stoichiometry N: 2
